According to the DeepSol protein solubility set:

test: soluble on expression in E. coli; label from the status in PepcDB or PDB records

Sequence | soluble on expression in E. coli
MASAIGKNFQSGARECSTFEKIKTELSAAGLSSGAIDGILKIAATYKPKEGEKPDLAQAMVTIGKLFAELETFIKTQPESDQTIYHAIIEKKKAELVAHGIKF | not soluble
MASEALHQVGDGEEAVLKKENFNMMNALDQLPKPFPNPKSMNRTVTTKGLPLASKGNLVNFLEDDTINLLKPLPVEDSDCSSDETSISAFSSTLLNPIKLAVTQPNSSFFAGMLEGELNKLSFSPMAKNAENEDLALGPCPCPSKSQMATRGLLDLDNPELETETSSTHSESSVVVDLPDTPFIFEHTVNNSTAVISWTYALGKQPVSFYQLLLQEVAKTQENELPEAKNRPWIFNKILGTTVKLMELKPNTCYCLSVRAANTAGVGKWCKPYKFATLATDFSSFPENYPIQITVRRKEPRQKIVSIGPEEMRRLEDLEYLFPC | soluble
MASESSIDEKKKKAQVTQSNINKNTPQQLTDKDLFGNETTLAVSEEDIQAALDGDEFRVPLNSPVILVQSGNRAPETIMQEEMRKYYTVSTFSGIPDRQKPLTCNKNKDKNENEDVASAENMNWMQALRFVAAKGHQKAIIVYQDMLQTGKYDSALKSTVWSDYKNDKLTDAISLRYLVRFTLVDVATGEWATWSPVNYEYKVLPPLPDKNEASTTDMTEQQIMQLKQKTYKAMVKDLVNRYQLEHHHHHH | not soluble
MASFITRAERSGNIFSRVTGLIRAGQLNWADRPLWYDVYVSSPPLTPPDWNVKLAKYDEPIRSIFYEEDVLRAKFYKTYRSTAGIQVDSSRTSVSQQFINEYKLVKSENAEATDDQLFEMTQKRLNENGIVLK | not soluble
MASIADAIGKILTAHSPYPAVVVDRHWNMVDANDAVAVLTEGCAAELLEPPVNVLRLSLHPDGMAPRILDLAQWRGHLLHRLRHQIAVTGDDGLRDLLRELEGYPGGTVGSAELPGSLVVPLRIRHHETVLAFLSTTTMFGTPLDVTVAELAIESFFPADAVTAATLRSSVSSD | soluble
MASISEKMVEALNRQINAEIYSAYLYLSMASYFDSIGLKGFSNWMRVQWQEELMHAMKMFDFVSERGGRVKLYAVEEPPSEWDSPLAAFEHVYEHEVNVTKRIHELVEMAMQEKDFATYNFLQWYVAEQVEEEASALDIVEKLRLIGEDKRALLFLDKELSLRQFTPPAEEEK | soluble
MASLCNSIIGWIKNDKEVRLRKRGDTSRRDAVEAGFEPRDTVPRCHSTQSLRDVQRVRSYNNSQFQASDLSLNPNGSIRAACDSTSGSVAPTAVVNPARNHVISHRQQHHTSYEKDLIPHHNIDVDRRRSLQALNGSSALYQLNNGGSPNGVRSQFSPSDLSIHTPVHHVGSRVRVSSVNQICDSNSAPQFSIDQRRSVHNIGNPVRNSFVDGIKTTSTPKNQIAVAPLAHKSRHLSESRDEMRGGAERRGSGGQMNLPAYTNYLIRHSGEERLVDGPVTNASDARIAYLEKRIRELELTQKEQSSHSTPSQSRHSSSKSSHFNGSSNLSTSEQLRLQEMSDELANKDRKVTSLESKLLKAYQRIERLNEEYDGKIKNLMYDSERARDDLTRCVDKIQQLENELDETRAAVQNGDHANEQEYHELRDKIWKQERELQESRTLLTRLREKEAEFERMRSEKGYLELKNENLNKKLEAKKRAVEELERSVSTLRLEQTICQQSCSSGSTPLADEMEIMSDIRPSLARPYTKAHSTLGSHNMSPLSHSKSSGLTKSFSNFALNSSKQRDDITANMSRSIREQNRHITMCRAMVVCLKDTVDRMARGENPDVARLLGVKLNVMSESEMEDDEDHEADASQPFSMMSAESALSKQCGKLADLDKDLDTIRCQLADWHGQTNAEGDGDRDVCRVQ | not soluble
MASMNDFIGRWKLVQTENFDEYMKEIGVGLITRKAAAHLKPILEIRLDGETWNFDQFSTFKNTKLSFKLGEEFVENSPDDRTYNSLFTFENGKLTHRQNKIKENHKSSVLTTWLENGKLIQTYQSGDVICRREWERE | not soluble
MASMTGGQQMGRGSGIVQQQSNLLRAIEAQQHLLQLTVWGIKQGGGGSEWEREISNYTDIIYRLIEESQNQQEKNEQELLALDKWASLWNWFDITNWLWYIQHHHHHH | soluble
MASPSKAVIVPGNGGGDVTTHGWYGWVKKELEKIPGFQCLAKNMPDPITARESIWLPFMETELHCDEKTIIIGHSSGAIAAMRYAETHRVYAIVLVSAYTSDLGDENERASGYFTRPWQWEKIKANCPYIVQFGSTDDPFLPWKEQQEVADRLETKLHKFTDCGHFQNTEFHELITVVKSLLKVPALEHHHHHH | soluble
MASRGLDLWLDEHVWKRKQEIGVKGENLLLPDLWLDFLQLSPIFQRKLAAVIACVRRLRTQATVYPEEDMCMAWARFCDPSDIKVVILGQDPYHGGQANGLAFSVAYGFPVPPSLRNIYAELHRSLPEFSPPDHGCLDAWASQGVLLLNTILTVQKGKPGSHADIGWAWFTDHVISLLSERLKACVFMLWGAKAGDKASLINSKKHLVLTSQHPSPLAQNSTRKSAQQKFLGNNHFVLANNFLREKGLGEIDWRL | soluble
MASVGIFFGSDTGNTEAIAKMIQKQLGKKLVHVQDIAKSSKEDINNFDLLLLGIPTWYYGEAQCDWDDFFPELEAIDFSTKLVAIFGCGDQEDYAEYFCDAMGTVRDIIQAKGATIVGHWPTEGYEFEASKALVDENHFVGLCIDEDRQPELTEQRVTKWVNQVYEEMCLAELED | not soluble
MASVTEQFNDIISLYSTKLEHTSLRQDSPEYQGLLLSTIKKLLNLKTAIFDRLALFSTNETIDDVSTASIKFLAVDYYLGLLISRRQSNDSDVAQRQSMKLIYLKKSVESFINFLTLLQDYKLLDPLVGEKLGNFKDRYNPQLSELYAQPKNNKDLSGAQLKRKEKIELFQRNKEISTKLHCLELELKNNDEDHDHDELLRELYLMRLHHFSLDTINNIEQNLFECEMLSNFLK | soluble
MASYSEDQCSWRGSGLSQAVKNVEQVWLRCAEGSVEWLYPAGALRLTLSPRLPWSAMGPGESSRSPVSVCVKPDPHWGGAQLYLERDGVLELLVGDETSTTPGPAHVRCFSALPGERPALFLQATPHRDISRRIAAFRYELRGDWTAQPAVNTDPVSSEGACRPCNNTEILMAVCTSDFVVRGNIRSVGTDSNLNAAVIKVSATRVYRQKFALFPESGRLTRSGEIRTPLQCGVRPGAGSFLFTGRVHFGEAWLGCAPRYKDFLKAYEQAKQSLMIPCTLVND | not soluble
MATAETSVLIGYLSDYGYSDRLSQAIGRGLVKTGVAVEMVDLRAVDPQELIEAVSSARGIVLGTPPSQPSEAVATALSTIFAAAHNKQAIGLFDSYGGDDEPIDALLAQFRNLGLHTAFPPIRVKDQPTEAIYQQCEESGTDLGQWLTRADAIQTMKSLEHHHHHH | not soluble
MATHKPINILEAFAAAPPPLDYVLPNMVAGTVGALVSPGGAGKSMLALQLAAQIAGGPDLLEVGELPTGPVIYLPAEDPPTAIHHRLHALGAHLSAEERQAVADGLLIQPLIGSLPNIMAPEWFDGLKRAAEGRRLMVLDTLRRFHIEEENASGPMAQVIGRMEAIAADTGCSIVFLHHASKGAAMMGAGDQQQASRGSSVLVDNIRWQSYLSSMTSAEAEEWGVDDDQRRFFVRFGVSKANYGAPFADRWFRRHDGGVLKPAVLERQRKSKGVPRGEA | soluble
MATISSLGSSGLELEGILEKLQAAEEKKLTLITARQASYETRISAYSKIQAAVEAVQKAAATLGSIDTLSAVKAVVSGDGLSVKTAAGAVPGQYTVNIDKLATAQNLQSGELDSRTDKHGTGGSIEIVQKDGTTTTVTLGEDTSLNGIVKAINGTDGLDVRATVISDGNGKHYLMLNNKTEGTEAAVTRITVSGNQEVADILDFDAANAGASNLTVQLAAQKAELTINGIPVVSDTNTVETAIDGLTLTLTKQTAAPLTVTVSSDPSVAATAVNDFVKAYNGLQTTIADLTAFDVKAEKQSALTGDGTTRNIQSAIAAALRVATGEGTLRTLSQLGITTDPKTGSLKTDTEKLEAALRDNPADVARIFSGPFGLGEKVKLATEQILGDEGSIKIRQEGLEETLESLQNQYDRQKLSIAATIEAYRKQFVQLDVFVTQMNNTSNYLSQQFAALSGTKK | not soluble
MATITDNDVALTITKIHQIQGSGTAFNSAFGGIRTIEGVVVAAFPGGSGLNGFFVQEEDADTDNDSTTSEGIFVFDPTGQFSGSVGDKVRVTGSVSEFSTNNGVSSLTQLSSVSSIINLGADILPKMSNIQLPVTTVADLERYEGMRVNISAGNGDLTVTEHFQLGRFGQVVLSATGTSNQPGTDGRLEQYTQFNDPSVAGYAAYLDEIAKRRIILDDGSSTQNPATIIFGRGGEPLSATNTLRGGDTVASITGVLDQRFEGYRVQTSTGVDFTPANPRPATTPDVGGTLKVASFNVLNYFNGDLEHHHHHH | not soluble
MATKKATMIIEKDFKIAEIDKRIYGSFIEHLGRAVYGGIYEPGHPQADENGFRQDVIELVKELQVPIIRYPGGNFVSGYNWEDGVGPKEQRPRRLDLAWKSVETNEIGLNEFMDWAKMVGAEVNMAVNLGTRGIDAARNLVEYCNHPSGSYYSDLRIAHGYKEPHKIKTWCLGNEMDGPWQIGHKTAVEYGRIACEAAKVMKWVDPTIELVVCGSSNRNMPTFAEWEATVLDHTYDHVDYISLHQYYGNRDNDTANYLALSLEMDDFIRSVVAIADYVKAKKRSKKTIHLSFDEWNVWYHSNEADKLIEPWTVAPPLLEDIYNFEDALLVGCMLITLMKHADRVKIACLAQLVNVIAPIMTEKNGPAWKQTIYYPFMHASVYGRGVALHPVISSPKYDSKDFTDVPYLESIAVYNEEKEEVTIFAVNRDMEDALLLECDVRSFEDYRVIEHIVLEHDNVKQTNSAQSSPVVPHRNGDAQLSDRKVSATLPKLSWNVIRLGKR | soluble
MATLEQKLTVLISDTIESMGYELVGVECQHAGRFLTVRLYIDKEGGVTIDDCSDVSRQVSAIFDVEDPISDKYNLEVSSPGLDRPLFTLAHYARFVGREMVIHLRIPMFDRRKWQGKLTKVDGDLISLEIENNGEHQFIFSNIQKANLIPVFDF | not soluble
MATPLWQTIYNNAVLLPESPKAIVHFLGGAFIAAAPQVTYRRLLEGLGDRGFAVIATPFINTFDHTTLADEVGRSYRLAYERLLALGLISPELPIFGVGHSMGSKLHLLMGCAQTSDRRGNVLLAFNNYSARRSIPLLGQLAPALDVTVEFSPSPARTLRLIRDRYSVANNLLVKFRNDEIDQTRDLIGALRDRFPETSEWLRLSGNHLTPVGQSLPQQTGLAWLDGVSQLASRELGRDLEVVTTAIADWCDRQLTAPATVVLEHHHHHH | not soluble
MATTPETMENHAFDADMSFESALENYLSSDFGDLEEGSIVKGEIVRLGDDYVLVDVNFKSEGQIAANEFRDANGDLIIGVGDRVDVFVVRKNEMEGTITLSYEKAKRMQLFDQLEEVQEKNGVIKGRIVRRIKGGYTVDLGGVEAFLPGSHVDLRPVPDMDALVNQEYEFRVLKINRRRSNVIVSRRVLLEEERDSKRQDLLRTLEEGQVVKGKAKNITEYGVFVDLGGLDGLLHITDMSWKRIRHPKELVSLGQELELKVLSFDRDSQKVSLGMKQLVADPWQDITAKFPEGLRGQGKVTNLVDYGAFVELEPGVEGLVHISEMSWTRKLRHPSQMVRVGDEVEVVILGVDPDKKRISLGMKQVKPNPWEVVAEKYPEGTILEGVIKNITEFGMFIGIEDGIDGLIHVSDISWTKKIRHPNEMYKVGDVVQAKVLTVDQENEKFTLGVKQLAEDPWSRVPATYPVGTLVTGSVTNITDFGLFVEVEEGIEGLVHVSEISQKKIKSPSEIYKEGQEIQAKVIHVSAEERRLGLSIKQLKDEEERRKPKEFRSGSPEVGGQTLGDILKLKLEEDAADNLEHHHHHH | not soluble
